{"source": "paper PMC10253715", "biological_target": "CD9-EGFP-FRB (UniProt P21926)", "data": [{"substance": "mCherry-FKBP12-luciferase", "values": [{"measurement": "luciferase activity in EVs released from co-transfected HEK-293 cells, rapamycin dose series for 24 h (rapamycin is the bridging compound)", "value": 3, "unit": "fold"}]}]}
